Like-named read-outs stand apart in the source and are kept apart here. Starred links: 1 amine or outer side, 2 acyl side, 3 side chain; linkers in the order of their positions; H or OH if unused. Non-standard residues stand in square brackets, D forms with d. Residues, ends and D or L forms follow the SMILES beside them. *: point of attachment. X3 = CC(C)(C)[Si](F)(c1ccc(C(=O)NC[C@@H](NC(=O)CN2CCN(CC(=O)O)CCN(CC(=O)O)CCN(CC(=O)O)CC2)C(=O)*)cc1)C(C)(C)C; DOTA = O=C(O)CN1CCN(CC(=O)O)CCN(CC(=O)*)CCN(CC(=O)O)CC1; X4 = CC(C)(C)[Si](O)(c1ccc(C(=O)*)cc1)C(C)(C)C; d(γGlu) = O=C(O)[C@@H](CCC(=O)[*:2])N[*:1]; PEG8 = NCCOCCOCCOCCOCCOCCOCCOCCOCCC(=O)O; 1Nal = N[C@@H](Cc1cccc2ccccc12)C(=O)O; Hyp = O=C(O)[C@@H]1C[C@@H](O)CN1; NMeNle = CCCC[C@H](NC)C(=O)O; PEG4 = NCCOCCOCCOCCOCCC(=O)O; dOrn = NCCC[C@@H](N)C(=O)O; Nle = CCCC[C@H](N)C(=O)O; dDap = NC[C@@H](N)C(=O)O; AEEA = NCCOCCOCC(=O)O
Experiments:
CCK-2R = target: T1, CCK-2R (Rattus norvegicus, UniProt P30553); assay: Determination of IC50: CCK-2R affinity on AR4-2J cells, competition with [^177Lu]Lu-DOTA-PP-F11N; format: binding
T1 construct: The CCK-2R expressing rat pancreatic tumor cells AR4-2J; host or cells: AR4-2J rat pancreatic tumor cells
T1 sequence (P30553 1-452): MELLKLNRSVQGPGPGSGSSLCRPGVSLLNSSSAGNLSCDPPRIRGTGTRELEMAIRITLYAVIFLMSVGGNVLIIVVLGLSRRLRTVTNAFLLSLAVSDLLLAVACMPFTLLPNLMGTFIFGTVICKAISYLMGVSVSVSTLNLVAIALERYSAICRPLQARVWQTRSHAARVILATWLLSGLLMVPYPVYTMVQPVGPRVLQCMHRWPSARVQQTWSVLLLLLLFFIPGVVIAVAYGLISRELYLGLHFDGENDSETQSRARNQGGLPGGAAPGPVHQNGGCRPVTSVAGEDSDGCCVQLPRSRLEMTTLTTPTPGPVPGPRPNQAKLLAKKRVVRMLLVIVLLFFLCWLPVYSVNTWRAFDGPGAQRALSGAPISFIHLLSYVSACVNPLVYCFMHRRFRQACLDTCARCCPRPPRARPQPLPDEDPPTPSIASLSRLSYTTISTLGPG
Description: AR4-2J cells were harvested 24 ± 2 h before the experiment and seeded in 24-well plates (2.0 × 10^5 cells in 1 mL/well). After removal of the nutrient medium (RPMI 1640, 5 mM L-Gln, 5 mL non-essential amino acids (100×), 10% FCS), the cells were washed once with 500 µL PBS. Thereafter, 200 µL nutrient medium (5% BSA, v/v) were added. Next, 25 µL per well of solutions containing either nutrient medium (5% BSA, v/v) as control or the respective compound in increasing concentration (10^-10 - 10^-4 M), were added with subsequent addition of 25 µL [^177Lu]Lu-DOTA-PP-F11N (0.3 pmol/well).
All experiments were performed in triplicate for each concentration. After 3 h incubation at 37 °C, the experiment was terminated by removal of the medium and consecutive rinsing with 300 µL PBS. The media of both steps were combined in one fraction and represent the amount of free radiolabeled reference. Afterwards, the cells were lysed with 300 µL of 1 M NaOH for at least 15 min and united with the 300 µL NaOH of the following washing step. Quantification of bound and free radiolabeled reference was accomplished in a γ-counter. IC50 determination for each conjugate was repeated twice.

[1] = n-Octanol-PBS distribution coefficient (logD7.4); format: physicochemical; conditions: pH = 7.4, ^177Lu-labeled
Description: Approximately 1 MBq of the labeled tracer was dissolved in 1 mL of a 1/1 mixture (v/v) of phosphate buffered saline (PBS, pH = 7.4) and n-octanol in an Eppendorf tube (1.5 mL). After vigorous mixing of the suspension for 3 min at rt, the vial was centrifuged at 9,000 rpm for 5 min (Biofuge 15, Heraeus Sepatech, Osterode, Germany) and 200 µL aliquots of both layers were measured in a γ-counter. The experiment was repeated at least five times.

[2] = read-out: IC50 [nM] (n = 3), ^natLu-labeled; AR4-2J cells; ^natLu-labeled
[3] = AR4-2J cells; ^natLu-labeled; read-out: IC50 [nM] (n = 3), ^natLu-labeled

| IC50 (CCK-2R; [3]) | Compound | IC50 (CCK-2R; [2]) | logD7.4 (n ≥ 5), ^177Lu-labeled [1] | logD7.4 (n ≥ 5), ^177Lu-labeled ([1]; listed as [^177Lu]Lu-DOTA-CCK-77) |
| --- | --- | --- | --- | --- |
| – | CCCC[C@@H](C(=O)N[C@@H](CC(=O)O)C(=O)N[C@@H](Cc1cccc2ccccc12)C(N)=O)N(C)C(=O)[C@H](Cc1c[nH]c2ccccc12)NC(=O)CCOCCOCCOCCOCCNC(=O)CC[C@@H](NC(=O)[C@@H]1C[C@@H](O)CN1C(=O)[C@@H]1C[C@@H](O)CN1C(=O)[C@@H]1C[C@@H](O)CN1C(=O)[C@@H]1C[C@@H](O)CN1C(=O)[C@@H]1C[C@@H](O)CN1C(=O)[C@@H]1C[C@@H](O)CN1C(=O)CC[C@@H](NC(=O)[C@@H](CNC(=O)c1ccc([Si](O)(C(C)(C)C)C(C)(C)C)cc1)NC(=O)CN1CCN(CC(=O)O)CCN(CC(=O)O)CCN(CC(=O)O)CC1)C(=O)O)C(=O)O [DOTA-rhCCK-84.2, DOTA-dap(SiOH)-γ-glu-(Hyp)6-γ-glu-(PEG)3-Trp-(N-Me)Nle-Asp-1-Nal-NH2] ({DOTA}-[dDap](X4)[d(γGlu)][Hyp][Hyp][Hyp][Hyp][Hyp][Hyp][d(γGlu)][PEG4]W[NMeNle]D[1Nal]-NH2) | 13 ± 0.8 nM | −2.21 ± 0.08 | – |
| – | CCCC[C@H](NC(=O)[C@H](Cc1c[nH]c2ccccc12)NC(=O)CNC(=O)[C@H](Cc1ccc(O)cc1)NC(=O)[C@H](C)NC(=O)CC[C@@H](NC(=O)CC[C@@H](NC(=O)CC[C@@H](NC(=O)CC[C@@H](NC(=O)CC[C@@H](NC(=O)CC[C@@H](NC(=O)CC[C@@H](NC(=O)[C@@H](CNC(=O)c1ccc([Si](F)(C(C)(C)C)C(C)(C)C)cc1)NC(=O)CCC(C(=O)O)N1CCN(CC(=O)O)CCN(CC(=O)O)CCN(CC(=O)O)CC1)C(=O)O)C(=O)O)C(=O)O)C(=O)O)C(=O)O)C(=O)O)C(=O)O)C(=O)N[C@@H](CC(=O)O)C(=O)N[C@@H](Cc1ccccc1)C(N)=O (stereo partly shown) [DOTAGA-MG-SiFA-22, DOTAGA-dap(SiFA)-γ-glu-γ-F11N] | 29.5 ± 1.9 nM | −2.16 ± 0.09 | – |
| 8.2 ± 1.3 nM | CCCC[C@@H](C(=O)N[C@@H](CC(=O)O)C(=O)N[C@@H](Cc1cccc2ccccc12)C(N)=O)N(C)C(=O)[C@H](Cc1c[nH]c2ccccc12)NC(=O)CNC(=O)CNC(=O)CNC(=O)CC[C@@H](NC(=O)CN1CCN(CC(=O)O)CCN(CC(=O)O)CCN(CC(=O)O)CC1)C(=O)O [DOTA-CCK-62, DOTA-γ-glu-(Gly)3-Trp-(N-Me)Nle-Asp-1-Nal-NH2] ({DOTA-d(γGlu)}-GGGW[NMeNle]D[1Nal]-NH2) | – | −2.66 ± 0.06 | – |
| 7.9 ± 0.2 nM | CCCC[C@@H](C(=O)N[C@@H](CC(=O)O)C(=O)N[C@@H](Cc1cccc2ccccc12)C(N)=O)N(C)C(=O)[C@H](Cc1c[nH]c2ccccc12)NC(=O)CCOCCOCCOCCOCCOCCOCCOCCOCCNC(=O)CC[C@@H](NC(=O)CN1CCN(CC(=O)O)CCN(CC(=O)O)CCN(CC(=O)O)CC1)C(=O)O [DOTA-CCK-80, DOTA-γ-glu-(PEG)7-Trp-(N-Me)Nle-Asp-1-Nal-NH2] ({DOTA-d(γGlu)-PEG8}-W[NMeNle]D[1Nal]-NH2) | – | −2.51 ± 0.09 | – |
| 7.9 ± 0.43 nM | CCCC[C@@H](C(=O)N[C@@H](CC(=O)O)C(=O)N[C@@H](Cc1cccc2ccccc12)C(N)=O)N(C)C(=O)[C@H](Cc1c[nH]c2ccccc12)NC(=O)CNC(=O)CNC(=O)[C@H](C)NC(=O)CC[C@@H](NC(=O)CN1CCN(CC(=O)O)CCN(CC(=O)O)CCN(CC(=O)O)CC1)C(=O)O [DOTA-CCK-60, DOTA-γ-glu-Ala-(Gly)2-Trp-(N-Me)Nle-Asp-1-Nal-NH2] ({DOTA-d(γGlu)}-AGGW[NMeNle]D[1Nal]-NH2) | – | −2.56 ± 0.09 | – |
| – | CCCC[C@H](NC(=O)[C@H](Cc1c[nH]c2ccccc12)NC(=O)CNC(=O)[C@H](Cc1ccc(O)cc1)NC(=O)[C@H](C)NC(=O)CC[C@@H](NC(=O)CC[C@@H](NC(=O)CC[C@@H](NC(=O)CC[C@@H](NC(=O)CC[C@@H](NC(=O)CC[C@@H](NC(=O)CC[C@@H](NC(=O)[C@H](N)CCCNC(=O)[C@@H](CNC(=O)c1ccc([Si](F)(C(C)(C)C)C(C)(C)C)cc1)NC(=O)CN1CCN(CC(=O)O)CCN(CC(=O)O)CCN(CC(=O)O)CC1)C(=O)O)C(=O)O)C(=O)O)C(=O)O)C(=O)O)C(=O)O)C(=O)O)C(=O)N[C@@H](CC(=O)O)C(=O)N[C@@H](Cc1ccccc1)C(N)=O [DOTA-MG-SiFA-28, DOTA-dap(SiFA)-γ-orn-(γ-glu)7-F11N] | – | −1.81 ± 0.10 | – |
| – | CCCC[C@H](NC(=O)[C@H](Cc1c[nH]c2ccccc12)NC(=O)CNC(=O)[C@H](Cc1ccc(O)cc1)NC(=O)[C@H](C)NC(=O)CC[C@@H](NC(=O)CC[C@@H](NC(=O)CC[C@@H](NC(=O)CC[C@@H](NC(=O)CC[C@@H](NC(=O)CC[C@@H](NC(=O)CC[C@@H](NC(=O)[C@H](N)CCCCNC(=O)[C@@H](CNC(=O)c1ccc([Si](F)(C(C)(C)C)C(C)(C)C)cc1)NC(=O)CN1CCN(CC(=O)O)CCN(CC(=O)O)CCN(CC(=O)O)CC1)C(=O)O)C(=O)O)C(=O)O)C(=O)O)C(=O)O)C(=O)O)C(=O)O)C(=O)N[C@@H](CC(=O)O)C(=O)N[C@@H](Cc1ccccc1)C(N)=O [DOTA-MG-SiFA-30, DOTA-dap(SiFA)-γ-lys-(γ-glu)7-F11N] | – | −1.74 ± 0.03 | – |
| – | CCCC[C@H](NC(=O)[C@H](Cc1c[nH]c2ccccc12)NC(=O)CNC(=O)[C@H](Cc1ccc(O)cc1)NC(=O)[C@H](C)NC(=O)CC[C@@H](NC(=O)CC[C@@H](NC(=O)CC[C@@H](NC(=O)CC[C@@H](NC(=O)CC[C@@H](NC(=O)[C@H](N)CCCNC(=O)[C@@H](CNC(=O)c1ccc([Si](F)(C(C)(C)C)C(C)(C)C)cc1)NC(=O)CN1CCN(CC(=O)O)CCN(CC(=O)O)CCN(CC(=O)O)CC1)C(=O)O)C(=O)O)C(=O)O)C(=O)O)C(=O)O)C(=O)N[C@@H](CC(=O)O)C(=O)N[C@@H](Cc1ccccc1)C(N)=O [DOTA-MG-SiFA-27, DOTA-dap(SiFA)-γ-orn-(γ-glu)5-F11N] (H-[dOrn](X3)[d(γGlu)][d(γGlu)][d(γGlu)][d(γGlu)][d(γGlu)]AYGW[Nle]DF-NH2) | – | −1.90 ± 0.10 | – |
| – | CCCC[C@@H](C(=O)N[C@@H](CC(=O)O)C(=O)N[C@@H](Cc1cccc2ccccc12)C(N)=O)N(C)C(=O)[C@H](Cc1c[nH]c2ccccc12)NC(=O)COCCOCCNC(=O)CC[C@@H](NC(=O)CN1CCN(CC(=O)O)CCN(CC(=O)O)CCN(CC(=O)O)CC1)C(=O)O [DOTA-CCK-77, DOTA-γ-glu-PEG-Trp-(N-Me)Nle-Asp-1-Nal-NH2] ({DOTA-d(γGlu)-AEEA}-W[NMeNle]D[1Nal]-NH2) | – | −3.09 ± 0.06 | < -3 |
| – | CCCC[C@H](NC(=O)[C@H](Cc1c[nH]c2ccccc12)NC(=O)CNC(=O)[C@H](Cc1ccc(O)cc1)NC(=O)[C@H](C)NC(=O)CC[C@@H](NC(=O)CC[C@@H](NC(=O)CC[C@@H](NC(=O)CC[C@@H](NC(=O)CC[C@@H](NC(=O)CC[C@@H](NC(=O)CC[C@@H](NC(=O)[C@H](N)CCCCNC(=O)[C@@H](CNC(=O)c1ccc([Si](F)(C(C)(C)C)C(C)(C)C)cc1)NC(=O)[C@H](N)CCCCNC(=O)CN1CCN(CC(=O)O)CCN(CC(=O)O)CCN(CC(=O)O)CC1)C(=O)O)C(=O)O)C(=O)O)C(=O)O)C(=O)O)C(=O)O)C(=O)O)C(=O)N[C@@H](CC(=O)O)C(=O)N[C@@H](Cc1ccccc1)C(N)=O [DOTA-MG-SiFA-31, DOTA-γ-lys-dap(SiFA)-γ-lys-(γ-glu)7-F11N] | – | −1.88 ± 0.10 | – |

Source: EP4631959A2, “NOVEL MINIGASTRIN-DERIVED CHOLECYSTOKININ 2 RECEPTOR BINDING MOLECULES FOR IMAGING AND TARGETED RADIOTHERAPY” (priority 2022, dated 2024)
